Data on 2 substances can be found in US20040072256A1.

For assay [1], the target named is hemagglutinin-neuraminidase (HN) glycoprotein of Sendai virus (Sendai virus). Put plainly: cell-based or functional assay.
Assay [2] concerns the target hemagglutinin (HA) of Influenza virus A/PR/8/34 (H1N1) (Influenza virus A/PR/8/34 (H1N1)) (UniProt P03452). Put plainly: cell-based or functional assay.
Assay [3] addresses hemagglutinin-neuraminidase (HN) glycoprotein of Sendai virus (Sendai virus). Put plainly: flow cytometry on SV-infected 721.221 cells, no mAb.
In assay [4] the target is hemagglutinin (HA) of Influenza virus A/PR/8/34 (H1N1) (Influenza virus A/PR/8/34 (H1N1)) (UniProt P03452). Kind of assay: flow cytometry on IV-infected 1106mel cells, no mAb.
The target in assay [5] is hemagglutinin-neuraminidase (HN) glycoprotein of Sendai virus (Sendai virus). Put plainly: flow cytometry, SV-infected vs uninfected 721.221 cells.
Assay [6] deals with hemagglutinin (HA) of Influenza virus A/PR/8/34 (H1N1) (Influenza virus A/PR/8/34 (H1N1)) (UniProt P03452). Put plainly: flow cytometry, IV-infected vs uninfected 1106mel cells.
Assay [7] deals with hemagglutinin-neuraminidase (HN) glycoprotein of Sendai virus (Sendai virus). Put plainly: flow cytometry, 293T cells transfected with Sendai HN cDNA vs mock.
For assay [8] the target is unchanged. Put plainly: flow cytometry on SV-infected 721.221 cells pre-incubated with competitor 135.7 (anti-HN).
Assay [9] has the same target. Kind of assay: flow cytometry on SV-infected 721.221 cells pre-incubated with competitor TC-9A1 (anti-F).
For assay [10] the target is unchanged. Put plainly: flow cytometry on SV-infected 721.221 cells pre-incubated with competitor TC-1D6 (anti-HN).
For assay [11] the target is unchanged. Kind of assay: flow cytometry on SV-infected 721.221 cells pre-incubated with competitor TC-9C1 (anti-HN).
In assay [12] the target is hemagglutinin (HA) of Influenza virus A/PR/8/34 (H1N1) (Influenza virus A/PR/8/34 (H1N1)) (UniProt P03452). Kind of assay: flow cytometry on IV-infected 1106mel cells pre-incubated with competitor H17-L2 (anti-HA).
Assay [13] has the same target. Put plainly: flow cytometry on IV-infected 1106mel cells pre-incubated with competitor H28-E23 (anti-HA).
The target is the same in assay [14]. Put plainly: flow cytometry on IV-infected 1106mel cells pre-incubated with NA2-1C1 (anti-NA, blocks neuraminidase activity).

A value given as a limit tells only on which side of the number the result lay.

“NKp46 receptor on NK cells (from UniProt O76036 22-304)” showed a lysis of HN-transfected 293T cells by NK line NK-GAL (35S-release) in assay [1] greater than 4 fold.

For the substance NKp46-Ig fusion protein (Fc fusion), the hemagglutination inhibition (IV-mediated agglutination of sheep erythrocytes) in assay [2] came out at 2 µM. Further, the MFI NKp46-Ig binding was 74 MFI in assay [3]; 441 MFI in assay [4]; 22 MFI in [8]; 63 MFI in assay [9]; 14 MFI in [10]; 18 MFI in assay [11]. Moreover, the MFI NKp46-Ig binding is 145 MFI in [12], 63 MFI in [13] and 980 MFI in assay [14]. This substance also came in with a fold increase in staining on SV infection in assay [5] of 10 fold. In assay [6], the fold increase in binding on IV infection was determined as 4 fold. Also, the fold increase in staining on HN transfection in assay [7] was 2 fold.
